Assay results published in article PMC9068512.

Target: modified calcium-permeable rat GluA2flip subunit with Q586 at the Q/R site (GluA2*), as the GluA2 portion of the GluA2–γ2 fusion (rat) (UniProt P19491)
Experiment: cryo-EM structure; purified GluA2–γ2 fusion in 150 mM NaCl, 20 mM Tris-HCl pH 8.0, 0.05% digitonin, supplemented with 20 µM Glu and 100 µM CTZ; seven LBD–TMD reconstructions (NNNN, GNNN, GNGN1, GNGN2, GGNN, GGGN, GGGG)

## modified calcium-permeable rat GluA2flip subunit with Q586 at the Q/R site (GluA2*), as the GluA2 portion of the GluA2–γ2 fusion (from UniProt P19491-2 22-883) (receptor)
  stoichiometry N: 4
